From IntAct's records for PubMed 19379695

B1: E3 ubiquitin-protein ligase SMURF2 (Mus musculus), A2A5Z6 (parent)
chain: MSNPGGRRNGPVKLRLTVLCAKNLVKKDFFRLPDPFAKVVVDGSGQCHSTDTVKNTLDPKWNQHYDLYIGKSDSVTISVWNHKKIHKKQGAGFLGCVRLLSNAINRLKDTGYQRLDLCKLGPNDNDTVRGQIVVSLQSRDRIGTGGQVVDCSRLFDNDLPDGWEERRTASGRIQYLNHITRTTQWERPTRPASEYSSPGRPLSCFVDENTPITGTNGATCGHSSDPRLAERRVRSQRHRNYMSRTHLHTPPDLPEGYEQRTTQQGQVYFLHTQTGVSTWHDPRVPRDLSNINCEELGPLPPGWEIRNTATGRVYFVDHNNRTTQFTDPRLSANLHLVLNRQNQLKDQQQQQVVPLCPDDTECLTVPRYKRDLVQKLKILRQELSQQQPQAGHCRIEVSREEIFEESYRQVMKMRPKDLWKRLMIKFRGEEGLDYGGVAREWLYLLSHEMLNPYYGLFQYSRDDIYTLQINPDSAVNPEHLSYFHFVGRIMGMAVFHGHYIDGGFTLPFYKQLLGKSITLDDMELVDPDLHNSLVWILENDITGVLDHTFCVEHNAYGEIIQHELKPNGKSIPVTEENKKEYVRLYVNWRFLRGIEAQFLALQKGFNEVIPQHLLKTFDEKELELIICGLGKIDVSDWKVNTRLKHCTPDSNVVKWFWKAVEFFDEERRARLLQFVTGSSRVPLQGFKALQGAAGPRLFTIHQIDACTNNLPKAHTCFNRIDIPPYESYEKLYEKLLTAIEETCGFAVE
partner: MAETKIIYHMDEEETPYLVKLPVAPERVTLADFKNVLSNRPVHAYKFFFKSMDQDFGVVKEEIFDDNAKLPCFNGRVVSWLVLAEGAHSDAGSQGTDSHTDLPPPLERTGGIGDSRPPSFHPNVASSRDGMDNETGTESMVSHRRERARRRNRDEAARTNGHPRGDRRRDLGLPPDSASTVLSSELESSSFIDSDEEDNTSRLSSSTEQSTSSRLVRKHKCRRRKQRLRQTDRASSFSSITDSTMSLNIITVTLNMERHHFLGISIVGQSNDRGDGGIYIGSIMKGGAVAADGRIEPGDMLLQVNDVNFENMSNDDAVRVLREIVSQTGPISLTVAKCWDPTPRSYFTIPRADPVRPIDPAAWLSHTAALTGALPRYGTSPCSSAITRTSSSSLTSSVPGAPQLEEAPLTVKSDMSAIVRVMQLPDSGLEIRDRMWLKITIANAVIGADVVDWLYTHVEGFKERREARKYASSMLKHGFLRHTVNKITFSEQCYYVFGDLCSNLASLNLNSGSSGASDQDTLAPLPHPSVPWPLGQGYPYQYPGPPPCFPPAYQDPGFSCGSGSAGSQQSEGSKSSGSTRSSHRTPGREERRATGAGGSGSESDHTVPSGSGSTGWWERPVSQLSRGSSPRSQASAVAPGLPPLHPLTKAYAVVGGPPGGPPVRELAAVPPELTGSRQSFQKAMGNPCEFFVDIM
B2: Segment polarity protein dishevelled homolog DVL-2 (Homo sapiens), O14641 (parent)
chain: MAGSSTGGGGVGETKVIYHLDEEETPYLVKIPVPAERITLGDFKSVLQRPAGAKYFFKSMDQDFGVVKEEISDDNARLPCFNGRVVSWLVSSDNPQPEMAPPVHEPRAELAPPAPPLPPLPPERTSGIGDSRPPSFHPNVSSSHENLEPETETESVVSLRRERPRRRDSSEHGAGGHRTGGPSRLERHLAGYESSSTLMTSELESTSLGDSDEEDTMSRFSSSTEQSSASRLLKRHRRRRKQRPPRLERTSSFSSVTDSTMSLNIITVTLNMEKYNFLGISIVGQSNERGDGGIYIGSIMKGGAVAADGRIEPGDMLLQVNDMNFENMSNDDAVRVLRDIVHKPGPIVLTVAKCWDPSPQAYFTLPRNEPIQPIDPAAWVSHSAALTGTFPAYPGSSSMSTITSGSSLPDGCEGRGLSVHTDMASVTKAMAAPESGLEVRDRMWLKITIPNAFLGSDVVDWLYHHVEGFPERREARKYASGLLKAGLIRHTVNKITFSEQCYYVFGDLSGGCESYLVNLSLNDNDGSSGASDQDTLAPLPGATPWPLLPTFSYQYPAPHPYSPQPPPYHELSSYTYGGGSASSQHSEGSRSSGSTRSDGGAGRTGRPEERAPESKSGSGSESEPSSRGGSLRRGGEASGTSDGGPPPSRGSTGGAPNLRAHPGLHPYGPPPGMALPYNPMMVVMMPPPPPPVPPAVQPPGAPPVRDLGSVPPELTASRQSFHMAMGNPSEFFVDVM
B3: E3 ubiquitin-protein ligase SMURF2 (Mus musculus), A2A5Z6 (parent)
chain: B1 chain
partner: B2 chain
B4: E3 ubiquitin-protein ligase SMURF2 (Mus musculus), A2A5Z6 (parent)
chain: B1 chain
partner: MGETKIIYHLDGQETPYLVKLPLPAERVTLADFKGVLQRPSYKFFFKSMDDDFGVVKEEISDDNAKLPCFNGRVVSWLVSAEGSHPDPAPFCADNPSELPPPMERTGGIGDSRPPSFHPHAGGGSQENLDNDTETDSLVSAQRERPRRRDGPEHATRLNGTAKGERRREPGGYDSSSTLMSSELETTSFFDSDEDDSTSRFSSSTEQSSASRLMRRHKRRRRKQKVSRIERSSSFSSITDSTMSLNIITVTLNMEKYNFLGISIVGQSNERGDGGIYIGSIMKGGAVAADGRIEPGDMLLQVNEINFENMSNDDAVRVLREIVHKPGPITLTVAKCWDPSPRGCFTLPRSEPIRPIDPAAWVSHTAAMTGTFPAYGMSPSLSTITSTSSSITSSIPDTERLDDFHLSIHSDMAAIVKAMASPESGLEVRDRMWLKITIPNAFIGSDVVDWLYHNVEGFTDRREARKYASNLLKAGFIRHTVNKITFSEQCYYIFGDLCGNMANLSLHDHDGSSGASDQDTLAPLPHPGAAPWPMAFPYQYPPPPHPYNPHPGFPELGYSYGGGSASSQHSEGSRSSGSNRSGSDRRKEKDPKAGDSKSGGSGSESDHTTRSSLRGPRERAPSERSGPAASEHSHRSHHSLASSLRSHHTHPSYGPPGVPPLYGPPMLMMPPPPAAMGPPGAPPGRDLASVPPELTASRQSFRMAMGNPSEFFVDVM
B5: E3 ubiquitin-protein ligase SMURF2 (Mus musculus), A2A5Z6 (parent)
chain: B1 chain
B6: E3 ubiquitin-protein ligase SMURF2 (Mus musculus), A2A5Z6 (parent)
chain: B1 chain
partner: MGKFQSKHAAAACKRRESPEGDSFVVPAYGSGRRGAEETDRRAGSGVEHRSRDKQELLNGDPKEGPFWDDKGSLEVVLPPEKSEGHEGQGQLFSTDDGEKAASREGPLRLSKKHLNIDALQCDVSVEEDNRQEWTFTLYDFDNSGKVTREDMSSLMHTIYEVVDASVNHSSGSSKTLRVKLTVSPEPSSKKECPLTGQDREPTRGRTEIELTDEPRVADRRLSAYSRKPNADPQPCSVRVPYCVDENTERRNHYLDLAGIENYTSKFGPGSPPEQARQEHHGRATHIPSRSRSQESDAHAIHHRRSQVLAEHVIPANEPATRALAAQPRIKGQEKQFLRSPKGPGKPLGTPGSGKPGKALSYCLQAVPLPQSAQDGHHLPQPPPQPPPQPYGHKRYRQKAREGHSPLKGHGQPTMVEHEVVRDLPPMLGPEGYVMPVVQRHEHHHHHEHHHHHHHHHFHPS
B7: E3 ubiquitin-protein ligase SMURF2 (Mus musculus), A2A5Z6 (parent)
chain: B1 chain
partner: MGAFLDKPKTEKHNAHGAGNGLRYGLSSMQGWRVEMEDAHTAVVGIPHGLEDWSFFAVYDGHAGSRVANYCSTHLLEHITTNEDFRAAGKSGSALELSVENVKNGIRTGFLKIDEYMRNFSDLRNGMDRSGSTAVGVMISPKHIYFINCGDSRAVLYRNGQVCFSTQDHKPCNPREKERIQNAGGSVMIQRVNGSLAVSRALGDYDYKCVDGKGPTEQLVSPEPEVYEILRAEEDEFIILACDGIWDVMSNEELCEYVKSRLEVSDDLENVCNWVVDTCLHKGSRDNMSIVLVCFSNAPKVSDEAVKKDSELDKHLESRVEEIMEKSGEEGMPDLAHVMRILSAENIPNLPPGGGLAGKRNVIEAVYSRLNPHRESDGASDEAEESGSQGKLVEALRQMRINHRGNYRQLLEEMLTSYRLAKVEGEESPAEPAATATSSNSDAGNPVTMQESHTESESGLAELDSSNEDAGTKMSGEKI

Variants of: B1
Conditions: with dvl1_mouse Dvl1, P51141

| Variant | effect of a mutation on the interaction |
| --- | --- |
| C716A | decreasing interaction |

Variants of: B2
Conditions: with smuf2_mouse Smurf2, A2A5Z6

| Variant | effect of a mutation on the interaction |
| --- | --- |
| C501R | decreasing interaction |

Variants of: B2
Conditions: with smuf2_mouse Smurf2, A2A5Z6
Remark: another data set of the same source

| Variant | effect of a mutation on the interaction |
| --- | --- |
| E499G | decreasing interaction |

Variants of: B3
Conditions: with dvl2_human DVL2, O14641

| Variant | effect of a mutation on the interaction |
| --- | --- |
| C716A | decreasing interaction |

Variants of: B4
Conditions: with dvl3_human DVL3, Q92997

| Variant | effect of a mutation on the interaction |
| --- | --- |
| C716A | decreasing interaction |

Variants of: B5
Conditions: with elav1_human ELAVL1, Q15717
Sequence of elav1_human ELAVL1, Q15717 (Q15717 whole entry): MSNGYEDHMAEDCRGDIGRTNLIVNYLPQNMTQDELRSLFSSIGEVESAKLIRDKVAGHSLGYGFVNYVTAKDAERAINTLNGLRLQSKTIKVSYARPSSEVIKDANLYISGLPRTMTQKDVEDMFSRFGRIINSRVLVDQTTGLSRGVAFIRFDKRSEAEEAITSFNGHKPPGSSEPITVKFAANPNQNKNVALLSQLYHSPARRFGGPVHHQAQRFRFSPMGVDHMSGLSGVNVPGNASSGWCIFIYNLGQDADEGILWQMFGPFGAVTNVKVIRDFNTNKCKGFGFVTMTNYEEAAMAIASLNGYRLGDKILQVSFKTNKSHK

| Variant | effect of a mutation on the interaction |
| --- | --- |
| C716A | decreasing interaction |

Variants of: B5
Conditions: with rac1_mouse Rac1, P63001

| Variant | effect of a mutation on the interaction |
| --- | --- |
| C716A | decreasing interaction |

Variants of: B5
Conditions: with tp53b_mouse Tp53bp1, P70399
Sequence of tp53b_mouse Tp53bp1, P70399 (P70399 whole entry): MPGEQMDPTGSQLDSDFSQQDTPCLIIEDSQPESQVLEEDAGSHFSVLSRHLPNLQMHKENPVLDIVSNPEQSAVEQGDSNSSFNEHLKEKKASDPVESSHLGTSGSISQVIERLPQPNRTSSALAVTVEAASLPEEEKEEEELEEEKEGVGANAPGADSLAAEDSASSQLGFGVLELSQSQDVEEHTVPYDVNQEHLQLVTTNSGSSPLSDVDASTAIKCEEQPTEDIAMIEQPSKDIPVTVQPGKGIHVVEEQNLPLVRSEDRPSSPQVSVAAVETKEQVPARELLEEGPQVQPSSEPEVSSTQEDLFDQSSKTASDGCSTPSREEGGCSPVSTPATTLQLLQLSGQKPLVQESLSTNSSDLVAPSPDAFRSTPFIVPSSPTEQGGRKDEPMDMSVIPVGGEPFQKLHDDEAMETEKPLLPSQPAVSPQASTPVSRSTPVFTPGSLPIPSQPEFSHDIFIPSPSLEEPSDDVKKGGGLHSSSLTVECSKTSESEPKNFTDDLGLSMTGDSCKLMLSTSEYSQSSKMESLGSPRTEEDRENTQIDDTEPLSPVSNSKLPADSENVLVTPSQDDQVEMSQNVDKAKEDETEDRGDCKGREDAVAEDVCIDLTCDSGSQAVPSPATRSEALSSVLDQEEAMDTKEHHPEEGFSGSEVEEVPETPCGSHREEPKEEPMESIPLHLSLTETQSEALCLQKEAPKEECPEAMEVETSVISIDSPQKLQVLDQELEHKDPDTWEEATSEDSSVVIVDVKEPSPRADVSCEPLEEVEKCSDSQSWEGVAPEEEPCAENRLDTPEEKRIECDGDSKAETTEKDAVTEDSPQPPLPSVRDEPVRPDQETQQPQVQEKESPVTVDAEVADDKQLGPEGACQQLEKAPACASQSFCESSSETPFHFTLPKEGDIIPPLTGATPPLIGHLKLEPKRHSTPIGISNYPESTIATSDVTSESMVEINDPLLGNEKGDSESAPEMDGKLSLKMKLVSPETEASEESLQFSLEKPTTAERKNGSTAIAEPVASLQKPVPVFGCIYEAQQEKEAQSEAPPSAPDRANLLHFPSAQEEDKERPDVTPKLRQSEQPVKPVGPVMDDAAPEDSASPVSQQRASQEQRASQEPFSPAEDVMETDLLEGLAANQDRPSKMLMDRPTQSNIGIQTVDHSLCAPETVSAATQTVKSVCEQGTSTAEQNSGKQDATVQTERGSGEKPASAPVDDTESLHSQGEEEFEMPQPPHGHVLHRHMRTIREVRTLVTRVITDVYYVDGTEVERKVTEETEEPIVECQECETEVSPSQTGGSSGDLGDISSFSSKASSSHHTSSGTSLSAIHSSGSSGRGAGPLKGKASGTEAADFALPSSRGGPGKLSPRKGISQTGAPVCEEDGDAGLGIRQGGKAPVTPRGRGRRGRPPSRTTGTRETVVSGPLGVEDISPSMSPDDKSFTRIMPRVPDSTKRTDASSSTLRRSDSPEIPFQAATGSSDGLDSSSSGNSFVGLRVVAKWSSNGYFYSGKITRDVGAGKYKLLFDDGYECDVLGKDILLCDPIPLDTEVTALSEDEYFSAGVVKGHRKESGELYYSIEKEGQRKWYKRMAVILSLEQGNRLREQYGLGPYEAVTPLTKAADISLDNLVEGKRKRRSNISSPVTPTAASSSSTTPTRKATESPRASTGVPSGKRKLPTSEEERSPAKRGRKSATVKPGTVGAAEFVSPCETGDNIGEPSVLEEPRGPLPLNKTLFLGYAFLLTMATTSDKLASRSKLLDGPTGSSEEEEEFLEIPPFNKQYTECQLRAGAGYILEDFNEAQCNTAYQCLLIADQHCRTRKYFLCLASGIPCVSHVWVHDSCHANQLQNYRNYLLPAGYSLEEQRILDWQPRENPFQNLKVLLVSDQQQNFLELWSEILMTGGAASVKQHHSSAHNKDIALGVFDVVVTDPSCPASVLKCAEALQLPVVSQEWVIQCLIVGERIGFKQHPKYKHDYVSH

| Variant | effect of a mutation on the interaction |
| --- | --- |
| C716A | decreasing interaction |

Variants of: B6
Conditions: with nkd2_mouse Nkd2, Q8VE28

| Variant | effect of a mutation on the interaction |
| --- | --- |
| C716A | decreasing interaction |

Variants of: B7
Conditions: with ppm1b_human PPM1B

| Variant | effect of a mutation on the interaction |
| --- | --- |
| C716A | decreasing interaction |
